Assay results as given in article PMC314469, “Protein Interaction Networks by Proteome Peptide Scanning” (PLoS Biology, 2004).

T1: Yhr016c SH3 (YSC84_YEAST), P32793
T1 chain: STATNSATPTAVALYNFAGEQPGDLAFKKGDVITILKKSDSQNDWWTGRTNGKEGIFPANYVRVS

T2: Myo5 SH3 (MYO5_YEAST), Q04439
T2 chain: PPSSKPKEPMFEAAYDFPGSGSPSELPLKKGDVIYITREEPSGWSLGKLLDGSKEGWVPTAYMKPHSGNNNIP

T3: Boi2 SH3 (BOI2_YEAST), P39969
T3 chain: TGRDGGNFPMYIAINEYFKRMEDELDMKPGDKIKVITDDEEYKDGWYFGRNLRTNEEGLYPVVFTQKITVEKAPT

T4: Yfr024 SH3 (LSB3_YEAST), P43603
T4 chain: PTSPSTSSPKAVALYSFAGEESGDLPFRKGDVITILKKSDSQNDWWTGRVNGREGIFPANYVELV

T5: Boi1 SH3 (BOI1_YEAST), P38041
T5 chain: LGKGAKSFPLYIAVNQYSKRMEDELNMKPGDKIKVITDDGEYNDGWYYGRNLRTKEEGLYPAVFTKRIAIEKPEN

T6: Rvs167 SH3 (RV167_YEAST), P39743
T6 chain: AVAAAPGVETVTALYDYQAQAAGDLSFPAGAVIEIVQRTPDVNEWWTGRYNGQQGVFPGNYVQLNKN

B1: YJR092W 117-130 (peptide)
chain: ELDTKTIPELPFSM
B2: YKR103W 236-249 (peptide)
chain: ENENKKLPPAPTVF
B3: YGR078C 9-22 (peptide)
chain: EKNARGIPQAPFIE
B4: YDL231C 393-406 (peptide)
chain: ETSLRVLPIAPKIF
B5: YOR042W 368-381 (peptide)
chain: ETKKKWQPLPPEPL
B6: YNL277W 122-135 (peptide)
chain: ETGVRYGPEFPLST
B7: YMR285C 368-381 (peptide)
chain: EKYGKDQPESPVPE
B8: YPL074W 331-344 (peptide)
chain: ELQIRYKPTPPLKK
B9: YOR340C 102-115 (peptide)
chain: EKLIKITPDTPFGF
B10: YJR010W 130-143 (peptide)
chain: EKVFRGDPEHPAIS
B11: YGL023C 22-35 (peptide)
chain: ERDGRGVPLGPRNH
B12: YPL207W 797-810 (peptide)
chain: ETTTRETPLPPIPA
B13: YDL095W 18-31 (peptide)
chain: ELDIKQGPVRPFIV

Target: T1, Yhr016c SH3 (YSC84_YEAST), P32793
Test: SPOT array

| normalised SPOT signal, Boehringer light units (BLU); mean over the file's lines of this peptide | Binder |
| --- | --- |
| 12.8 | B1 |
| 24.6 | B2 |
| 42.5 | B3 |
| 55.1 | B4 |
| 2.5 | B5 |
| 40.6 | B6 |
| 1.6 | B7 |
| 42.2 | B8 |
| 34.6 | B9 |
| 67.9 | B10 |
| 50.2 | B11 |
| 71.1 | B12 |
| 17.8 | B13 |

Target: T2, Myo5 SH3 (MYO5_YEAST), Q04439
Test: SPOT array

| normalised SPOT signal, Boehringer light units (BLU); mean over the file's lines of this peptide | Binder |
| --- | --- |
| 53.2 | B1 |
| 67.7 | B2 |
| 136 | B3 |
| 548 | B4 |
| 256 | B5 |
| 96.2 | B6 |
| 143 | B7 |
| 171 | B8 |
| 206 | B9 |
| 90 | B10 |
| 121 | B11 |
| 178 | B12 |
| 161 | B13 |

The binders below were run against Sho1 SH3 (SHO1_YEAST), P40073 (assay: SPOT array).
Sho1 SH3 (SHO1_YEAST), P40073, sequence (P40073 295-366): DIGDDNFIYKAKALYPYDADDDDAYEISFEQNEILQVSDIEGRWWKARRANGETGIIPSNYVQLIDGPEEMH

| normalised SPOT signal, Boehringer light units (BLU); mean over the file's lines of this peptide | Binder |
| --- | --- |
| 44.1 | B1 |
| 3520 | B2 |
| 24.1 | B3 |
| 2880 | B4 |
| 436 | B5 |
| 23.1 | B6 |
| 66.3 | B7 |
| 76.5 | B8 |
| 36.8 | B9 |
| 75.6 | B10 |
| 38 | B11 |
| 1020 | B12 |
| 27.9 | B13 |

Target: T3, Boi2 SH3 (BOI2_YEAST), P39969
Test: SPOT array

| normalised SPOT signal, Boehringer light units (BLU); mean over the file's lines of this peptide | Binder |
| --- | --- |
| 24.8 | B1 |
| 12.9 | B2 |
| 10.5 | B3 |
| 47.6 | B4 |
| 13.2 | B5 |
| 23.4 | B6 |
| 12.1 | B7 |
| 17.3 | B8 |
| 19.1 | B9 |
| 15.1 | B10 |
| 25 | B11 |
| 43.2 | B12 |
| 33.2 | B13 |

Target: T4, Yfr024 SH3 (LSB3_YEAST), P43603
Test: SPOT array

| normalised SPOT signal, Boehringer light units (BLU); mean over the file's lines of this peptide | Binder |
| --- | --- |
| 27.4 | B1 |
| 16.2 | B2 |
| 202 | B3 |
| 399 | B4 |
| 30.2 | B5 |
| 7.2 | B6 |
| 0 | B7 |
| 930 | B8 |
| 61.9 | B9 |
| 48.5 | B10 |
| 643 | B11 |
| 108 | B12 |
| 41.1 | B13 |

Target: T5, Boi1 SH3 (BOI1_YEAST), P38041
Test: SPOT array

| normalised SPOT signal, Boehringer light units (BLU); mean over the file's lines of this peptide | Binder |
| --- | --- |
| -0 | B1 |
| 50.9 | B2 |
| 48.1 | B3 |
| 426 | B4 |
| 116 | B5 |
| 93.9 | B6 |
| 62.1 | B7 |
| 87.9 | B8 |
| 0 | B9 |
| 17400 | B10 |
| 370 | B11 |
| 85 | B12 |
| 86.2 | B13 |

Target: T6, Rvs167 SH3 (RV167_YEAST), P39743
Test: SPOT array

| normalised SPOT signal, Boehringer light units (BLU); mean over the file's lines of this peptide | Binder |
| --- | --- |
| 98.8 | B1 |
| 22 | B2 |
| 33.4 | B3 |
| 766 | B4 |
| 28.5 | B5 |
| 11.9 | B6 |
| 41.8 | B7 |
| 188 | B8 |
| 46.5 | B9 |
| 66.3 | B10 |
| 35.7 | B11 |
| 167 | B12 |
| 24.5 | B13 |
